Experimental data as given in article PMC8980801 (2022).

Experiments:
[1] = target: FLAG-Fzd4-3C-sGFP1–10-PDZ (mouse | not stated) (UniProt Q61088); assay: SEC; FLAG-Fzd4-sGFP1–10 and FLAG-Fzd4-sGFP11 coexpressed in Sf9, solubilised in DDM, M1 anti-FLAG eluate on Superose 6 to separate dimers from monomers; total protein compared with GFP fluorescence
[2] = target: T1, Fzd4 homodimer in biotinylated nanodiscs (mouse, UniProt Q61088 42-537); assay: BLI
T1 chain: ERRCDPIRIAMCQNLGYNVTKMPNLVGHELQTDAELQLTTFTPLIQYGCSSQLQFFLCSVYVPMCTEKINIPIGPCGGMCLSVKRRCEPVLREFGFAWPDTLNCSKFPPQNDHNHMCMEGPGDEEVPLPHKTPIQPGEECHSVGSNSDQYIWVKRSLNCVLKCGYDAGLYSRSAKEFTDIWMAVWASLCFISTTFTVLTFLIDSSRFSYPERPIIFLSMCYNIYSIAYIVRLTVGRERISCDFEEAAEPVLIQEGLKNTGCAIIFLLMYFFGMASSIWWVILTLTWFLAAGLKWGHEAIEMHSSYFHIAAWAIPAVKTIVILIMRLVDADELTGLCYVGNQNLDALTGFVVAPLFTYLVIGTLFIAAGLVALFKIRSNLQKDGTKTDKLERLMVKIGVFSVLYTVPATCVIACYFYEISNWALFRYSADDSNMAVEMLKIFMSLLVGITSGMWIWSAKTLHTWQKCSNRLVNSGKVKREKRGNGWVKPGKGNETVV

[3] = target: T1, Fzd4 homodimer in biotinylated nanodiscs; assay: BLI; biotinylated nanodiscs on streptavidin biosensors, 0-10 nM MBP–Norrin, 3 h association, 25 °C, 20 mM Hepes pH 7.4, 150 mM NaCl, 1 mM EDTA, 1 mg/ml BSA; steady state
[4] = target: T2, Fzd4–LRP6 heterodimer in biotinylated nanodiscs, prebound to Norrin (mouse | human | , UniProt Q61088 42-537; O75581 20-1439; Q00604 33-133); assay: BLI
[5] = target: T2, Fzd4–LRP6 heterodimer in biotinylated …; assay: BLI; remark: listed apart in the source
[6] = target: T3, Fzd4–LRP6 heterodimer in biotinylated nanodiscs (mouse | human, UniProt Q61088 42-537; O75581 20-1439); assay: BLI; without Norrin
T3 chain 1: T1 chain
T3 chain 2: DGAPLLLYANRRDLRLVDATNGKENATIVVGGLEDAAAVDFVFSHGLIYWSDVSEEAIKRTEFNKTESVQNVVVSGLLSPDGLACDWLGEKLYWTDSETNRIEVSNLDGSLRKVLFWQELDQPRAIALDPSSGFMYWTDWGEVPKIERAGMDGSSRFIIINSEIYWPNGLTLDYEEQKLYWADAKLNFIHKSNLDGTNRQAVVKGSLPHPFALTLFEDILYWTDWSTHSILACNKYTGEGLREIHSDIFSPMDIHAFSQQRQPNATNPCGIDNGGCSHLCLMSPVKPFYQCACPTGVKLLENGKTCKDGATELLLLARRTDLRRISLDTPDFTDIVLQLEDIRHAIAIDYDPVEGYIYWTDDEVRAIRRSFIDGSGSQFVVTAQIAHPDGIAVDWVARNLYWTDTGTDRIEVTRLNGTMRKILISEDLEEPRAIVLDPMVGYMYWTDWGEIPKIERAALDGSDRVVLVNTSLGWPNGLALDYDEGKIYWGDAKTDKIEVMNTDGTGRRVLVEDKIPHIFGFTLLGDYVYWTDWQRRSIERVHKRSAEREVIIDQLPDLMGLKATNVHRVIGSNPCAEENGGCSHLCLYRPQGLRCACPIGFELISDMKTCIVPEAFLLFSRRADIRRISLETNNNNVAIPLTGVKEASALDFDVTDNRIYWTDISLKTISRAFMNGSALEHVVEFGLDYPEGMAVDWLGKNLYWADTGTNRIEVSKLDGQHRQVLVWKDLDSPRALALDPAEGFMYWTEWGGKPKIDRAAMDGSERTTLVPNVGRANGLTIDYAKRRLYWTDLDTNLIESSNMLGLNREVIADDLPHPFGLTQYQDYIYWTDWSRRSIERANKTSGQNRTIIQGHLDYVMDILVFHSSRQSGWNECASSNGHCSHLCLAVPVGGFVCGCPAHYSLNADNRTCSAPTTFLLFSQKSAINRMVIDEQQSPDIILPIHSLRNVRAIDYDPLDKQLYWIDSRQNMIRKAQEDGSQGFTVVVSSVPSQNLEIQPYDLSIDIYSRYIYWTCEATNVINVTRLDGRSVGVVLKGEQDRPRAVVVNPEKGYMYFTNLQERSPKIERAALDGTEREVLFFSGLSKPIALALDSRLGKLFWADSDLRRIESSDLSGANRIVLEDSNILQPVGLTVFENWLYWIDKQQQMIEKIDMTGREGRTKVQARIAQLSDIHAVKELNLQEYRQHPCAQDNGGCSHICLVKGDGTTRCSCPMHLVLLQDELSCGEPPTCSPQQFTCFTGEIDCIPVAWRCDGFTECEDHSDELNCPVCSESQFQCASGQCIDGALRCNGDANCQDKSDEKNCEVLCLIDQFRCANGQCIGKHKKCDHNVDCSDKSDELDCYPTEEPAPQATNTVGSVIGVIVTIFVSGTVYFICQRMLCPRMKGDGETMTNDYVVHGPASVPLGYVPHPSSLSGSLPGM

[7] = target: T3, Fzd4–LRP6 heterodimer in biotinylated …; assay: BLI; kinetic, without Norrin
[8] = target: Fzd4–LRP6 heterodimer in biotinylated nanodiscs (mouse | human) (UniProt Q61088); assay: BLI; nanodiscs with 5% PIP2 on SMAP biosensors, 0.01 to 32 μM DEP, empty nanodiscs subtracted, 25 °C, 20 mM Hepes pH 7.4, 150 mM NaCl, 1 mM EDTA, 1 mg/ml BSA; steady state
[9] = target: Fzd4–LRP6 heterodimer in biotinylated nanodiscs, prebound to Norrin (mouse | human | not stated) (UniProt Q61088); assay: as above
[10] = target: T3, Fzd4–LRP6 heterodimer in biotinylated …; assay: BLI
[11] = target: T4, LRP6 monomer in biotinylated nanodiscs (human, UniProt O75581 20-1439); assay: BLI
T4 chain: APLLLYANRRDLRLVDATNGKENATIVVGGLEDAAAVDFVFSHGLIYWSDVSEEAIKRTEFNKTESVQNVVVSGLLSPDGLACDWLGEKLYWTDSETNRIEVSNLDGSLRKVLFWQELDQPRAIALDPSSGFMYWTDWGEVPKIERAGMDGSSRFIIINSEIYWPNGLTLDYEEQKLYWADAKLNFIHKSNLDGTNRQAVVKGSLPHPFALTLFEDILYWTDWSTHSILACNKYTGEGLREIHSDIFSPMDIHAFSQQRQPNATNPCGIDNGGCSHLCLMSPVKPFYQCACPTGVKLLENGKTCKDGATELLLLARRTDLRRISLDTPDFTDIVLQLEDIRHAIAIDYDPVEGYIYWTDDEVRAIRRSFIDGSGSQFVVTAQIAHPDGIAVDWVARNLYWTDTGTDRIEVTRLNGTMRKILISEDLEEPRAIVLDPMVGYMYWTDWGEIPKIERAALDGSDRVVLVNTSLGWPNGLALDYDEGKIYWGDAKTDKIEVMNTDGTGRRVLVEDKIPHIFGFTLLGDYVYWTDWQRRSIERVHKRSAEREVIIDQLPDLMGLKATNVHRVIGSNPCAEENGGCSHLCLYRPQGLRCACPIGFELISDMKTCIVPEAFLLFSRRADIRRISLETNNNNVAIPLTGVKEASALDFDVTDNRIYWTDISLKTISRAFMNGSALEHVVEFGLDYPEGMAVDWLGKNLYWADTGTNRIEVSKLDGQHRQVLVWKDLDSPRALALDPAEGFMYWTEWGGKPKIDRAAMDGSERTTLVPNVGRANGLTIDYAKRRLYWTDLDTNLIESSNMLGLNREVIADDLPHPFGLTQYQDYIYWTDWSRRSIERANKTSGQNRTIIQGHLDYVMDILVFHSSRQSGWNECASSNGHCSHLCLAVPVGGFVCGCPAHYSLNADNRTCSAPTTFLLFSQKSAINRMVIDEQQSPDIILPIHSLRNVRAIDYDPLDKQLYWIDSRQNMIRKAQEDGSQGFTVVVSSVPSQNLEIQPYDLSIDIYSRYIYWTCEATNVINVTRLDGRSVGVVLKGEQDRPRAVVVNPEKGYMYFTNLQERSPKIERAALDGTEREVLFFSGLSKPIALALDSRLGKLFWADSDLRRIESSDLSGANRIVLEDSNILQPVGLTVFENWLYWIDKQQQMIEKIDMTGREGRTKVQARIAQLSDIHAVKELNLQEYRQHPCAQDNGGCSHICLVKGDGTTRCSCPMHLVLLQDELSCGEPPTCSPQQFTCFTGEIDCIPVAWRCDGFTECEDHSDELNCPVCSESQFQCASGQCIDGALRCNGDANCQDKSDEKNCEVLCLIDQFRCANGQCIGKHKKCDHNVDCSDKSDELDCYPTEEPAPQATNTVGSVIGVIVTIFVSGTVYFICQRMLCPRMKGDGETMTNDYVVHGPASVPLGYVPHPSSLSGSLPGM

[12] = target: T4, LRP6 monomer in biotinylated nanodiscs; assay: BLI; kinetic
[13] = target: Fzd4–LRP6 heterodimer in biotinylated nanodiscs (mouse | human) (UniProt Q61088); assay: BLI; biotinylated nanodiscs on streptavidin biosensors, 0-100 nM DKK1, empty discs subtracted, 25 °C, 20 mM Hepes pH 7.4, 150 mM NaCl, 1 mM EDTA, 1 mg/ml BSA; steady state

Molecule: FLAG-Fzd4-3C-sGFP11-PDZ (Sf9) (from UniProt Q61088 42-537) (receptor)
- percent of the expressed protein GFP dimerized [1]: 50%

B1: MBP–Norrin (ligand)
chain: DSDPRRCMRHHYVDSISHPLYKCSSKMVLLARCEGHCSQASRSEPLVSFSTVLKQPFRSSCHCCRPQTSKLKALRLRCSGGMRLTATYRYILSCHCEECNS
- koff [2]: 0.00034 s⁻¹
- Kd [3]: 0.46 nM

B2: Dishevelled-2 (Dvl2) DEP domain (domain or fragment)
chain: GLSVHMDMASVTKAMAAPESGLEVRDRMWLKITIPNAFLGSDVVDWLYHHVEGFPERREARKYASGLLKAGLIRHTVNKITFSEQCYYVFGDLSG
- koff [4]: 0.013 s⁻¹
- Kd [5]: 420 nM
- koff [6]: 0.0095 s⁻¹
- Kd [7]: 260 nM
- Kd [8]: 220 nM
- Kd [9]: 198 nM

B3: Dikkopf1 (DKK1) (ligand)
chain: TLNSVLNSNAIKNLPPPLGGAAGHPGSAVSAAPGILYPGGNKYQTIDNYQPYPCAEDEECGTDEYCASPTRGGDAGVQICLACRKRRKRCMRHAMCCPGNYCKNGICVSSDQNHFRGEIEETITESFGNDHSTLDGYSRRTTLSSKMYHTKGQEGSVCLRSSDCASGLCCARHFWSKICKPVLKEGQVCTKHRRKGSHGLEIFQRCYCGEGLSCRIQKDHHQASNSSRLHTCQRH
- koff [10]: 0.0057 s⁻¹
- koff [11]: 0.012 s⁻¹
- Kd [12]: 16.7 nM
- Kd [13]: 5.6 nM
